{"source": "patent US20240261333A1", "about": "(published 2024)", "binders": {"B1": {"name": "N-terminal FLAG tagged B3GNT2 (enzyme, human, UniProt Q9NY97 1-397, looked up)", "chain": "MSVGRRRIKLLGILMMANVFIYFIMEVSKSSSQEKNGKGEVIIPKEKFWKISTPPEAYWNREQEKLNRQYNPILSMLTNQTGEAGRLSNISHLNYCEPDLRVTSVVTGFNNLPDRFKDFLLYLRCRNYSLLIDQPDKCAKKPFLLLAIKSLTPHFARRQAIRESWGQESNAGNQTVVRVFLLGQTPPEDNHPDLSDMLKFESEKHQDILMWNYRDTFFNLSLKEVLFLRWVSTSCPDTEFVFKGDDDVFVNTHHILNYLNSLSKTKAKDLFIGDVIHNAGPHRDKKLKYYIPEVVYSGLYPPYAGGGGFLYSGHLALRLYHITDQVHLYPIDDVYTGMCLQKLGLVPEKHKGFRTFDIEEKNKNNICSYVDLMLVHSRKPQEMIDIWSQLQSAHLKC", "notes": "Bait of the co-IP; pulled down with mouse anti-FLAG (Millipore Sigma F3165) from cell lysate; also called N-FLAG B3GNT2; N-term FLAG; not shown: N-terminal FLAG tag"}}, "experiment_in_all_cases": "co-IP with anti-FLAG, mass spectrometry; lysate of cells with N-FLAG B3GNT2", "key": {"[1]": {"target": "T1, GANAB (human, UniProt Q14697 29-944)", "T1 construct": "also called NP_938148.1 (+1)", "T1 sequence (looked up)": "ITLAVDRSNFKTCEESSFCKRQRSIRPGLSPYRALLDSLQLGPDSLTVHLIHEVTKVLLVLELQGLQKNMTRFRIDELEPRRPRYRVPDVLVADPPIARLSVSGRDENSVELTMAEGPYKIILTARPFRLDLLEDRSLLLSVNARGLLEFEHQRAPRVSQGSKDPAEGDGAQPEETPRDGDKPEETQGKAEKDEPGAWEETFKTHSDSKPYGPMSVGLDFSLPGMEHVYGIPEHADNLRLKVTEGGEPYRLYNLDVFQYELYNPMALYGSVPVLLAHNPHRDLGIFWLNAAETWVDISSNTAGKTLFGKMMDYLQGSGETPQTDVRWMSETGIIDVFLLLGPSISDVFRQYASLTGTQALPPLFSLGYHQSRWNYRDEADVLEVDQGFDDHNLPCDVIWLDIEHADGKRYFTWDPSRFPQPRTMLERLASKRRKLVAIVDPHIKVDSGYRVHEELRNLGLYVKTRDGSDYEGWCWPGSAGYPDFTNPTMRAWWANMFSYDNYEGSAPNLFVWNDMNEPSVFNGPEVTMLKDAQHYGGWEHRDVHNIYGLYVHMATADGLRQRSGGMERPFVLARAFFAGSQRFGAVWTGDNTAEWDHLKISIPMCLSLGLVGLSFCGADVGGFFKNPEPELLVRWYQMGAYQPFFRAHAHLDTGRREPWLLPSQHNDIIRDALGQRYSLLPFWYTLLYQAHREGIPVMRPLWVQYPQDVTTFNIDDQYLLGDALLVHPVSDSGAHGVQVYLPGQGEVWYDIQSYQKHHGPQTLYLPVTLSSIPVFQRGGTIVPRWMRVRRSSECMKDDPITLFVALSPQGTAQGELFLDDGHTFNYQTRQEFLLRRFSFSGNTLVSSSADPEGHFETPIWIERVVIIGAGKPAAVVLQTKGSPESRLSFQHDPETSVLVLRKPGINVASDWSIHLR", "description": "(§1) Cells were plated in 10-cm cell culture dishes and grown to 60-80% confluency. For each condition, two biological replicates were harvested for co-IP. Cells were washed with PBS and 4 mL of lysis buffer (20 mM HEPES, 1% Triton X-100, 150 mM NaCl, 1 mM EDTA, and 10% glycerol) containing protease inhibitor cocktail was added. Cells were scraped and lysate was incubated at 4° C. under rotary agitation for 1 h. Lysate was centrifuged at 14,000×g for 10 min at 4° C. Supernatant was transferred to a new tube and an aliquot was taken as the input. […] For Western blots, 10 μg/mL Chicken Anti-FLAG (Aves labs ET-DY100) and IgY control (R&D Systems AB-101-C) antibodies were biotinylated (Thermo Fisher Scientific 90407) and added to the respective conditions. Lysates with antibodies were incubated at 4° C. under rotary agitation overnight. For each mL of lysate, 50 μL of Pierce Protein A/G Magnetic Beads (Mass spectrometry; Thermo Fisher Scientific 88803) or Pierce Streptavidin Magnetic Beads (Western blot; Thermo Fisher Scientific 88817) was washed twice with lysis buffer. Lysates with antibodies were added to the beads and incubated at 4° C. under rotary agitation for 4 h. Beads were washed with lysis buffer 3 times and resuspended in lysis buffer for storage.\n(§2) Magnetic beads were resuspended in 100 mM Tris pH 7.8, reduced, alkylated and digested with trypsin at 37° ° C. overnight. This solution was subjected to solid phase extraction to concentrate the peptides and remove unwanted reagents followed by injection onto a Shimadzu HPLC with fraction collector. Eight fractions were collected and after concentration were injected on a Waters NanoAcquity HPLC equipped with a self-packed Aeris 3 μm C18 analytical column 0.075 mm by 20 cm, (Phenomenex). Peptides were eluted using standard reverse-phase gradients. The effluent from the column was analyzed using a Thermo Orbitrap Elite mass spectrometer (nanospray configuration) operated in a data dependent manner for 54 minutes. The resulting fragmentation spectra were correlated against the known database using Proteome Discover 1.4 (Thermo Fisher Scientific)."}, "[2]": {"target": "RPL26 (human, UniProt P61254 1-145)", "description": "as §1, §2"}, "[3]": {"target": "T2, MAGT1 (human, UniProt Q9H0U3 30-335, limits assumed)", "T2 construct": "also called NP_115497.4", "T2 sequence (looked up)": "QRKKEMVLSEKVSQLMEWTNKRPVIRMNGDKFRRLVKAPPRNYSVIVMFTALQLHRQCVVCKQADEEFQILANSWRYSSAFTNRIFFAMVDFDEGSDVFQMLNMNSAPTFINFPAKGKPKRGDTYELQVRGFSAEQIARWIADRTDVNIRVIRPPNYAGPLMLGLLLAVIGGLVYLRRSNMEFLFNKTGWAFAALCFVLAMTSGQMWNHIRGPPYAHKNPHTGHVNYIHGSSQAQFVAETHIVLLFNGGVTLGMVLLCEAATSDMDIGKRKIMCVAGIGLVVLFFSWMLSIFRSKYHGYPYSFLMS", "description": "as §1, §2"}, "[4]": {"target": "T3, CCT7 (human, UniProt Q99832-3 1-499, limits assumed)", "T3 construct": "also called NP_001159757.1 (+1)", "T3 sequence (looked up)": "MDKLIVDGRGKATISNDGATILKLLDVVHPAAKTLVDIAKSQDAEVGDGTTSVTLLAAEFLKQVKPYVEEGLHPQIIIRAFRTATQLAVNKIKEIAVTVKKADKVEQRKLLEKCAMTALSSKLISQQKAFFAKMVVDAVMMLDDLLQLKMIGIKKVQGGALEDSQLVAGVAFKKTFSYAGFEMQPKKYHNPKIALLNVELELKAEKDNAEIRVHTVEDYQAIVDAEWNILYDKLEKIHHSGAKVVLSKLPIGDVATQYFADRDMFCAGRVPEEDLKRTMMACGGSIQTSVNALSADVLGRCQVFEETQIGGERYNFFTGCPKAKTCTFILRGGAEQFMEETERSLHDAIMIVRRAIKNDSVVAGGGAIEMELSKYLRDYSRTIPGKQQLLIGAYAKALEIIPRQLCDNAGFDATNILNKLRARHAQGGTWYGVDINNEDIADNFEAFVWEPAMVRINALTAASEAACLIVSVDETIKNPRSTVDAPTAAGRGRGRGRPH", "description": "as §1, §2"}}}
{"binder": "B1", "values": [{"measurement": "co-IP mass spectrometry count", "setting": "[1]", "result": 0}, {"measurement": "co-IP mass spectrometry count", "setting": "[2]", "result": 7}, {"measurement": "co-IP mass spectrometry count", "setting": "[3]", "result": 0}, {"measurement": "co-IP mass spectrometry count", "setting": "[4]", "result": 0}]}
